We go through three proteins from article PMC6487875 (Biochemistry, 2018).

A word on the stoichiometry N: it is a count of units in the complex or per binding partner.

Substitutions are numbered along the chain they refer to. Names and notes keep the numbering of the source. Values joined by “and” are separate entries in the source; they are usually repeats but may differ in a detail not shown here. Equal entries are not always repeated.

Sequences and labels used below:
B1: wild type glutamate oxaloacetate transaminase 1 (WT-GOT1) (enzyme, human, UniProt P17174-1 1-413, looked up)
chain: MAPPSVFAEVPQAQPVLVFKLTADFREDPDPRKVNLGVGAYRTDDCHPWVLPVVKKVEQKIANDNSLNHEYLPILGLAEFRSCASRLALGDDSPALKEKRVGGVQSLGGTGALRIGADFLARWYNGTNNKNTPVYVSSPTWENHNAVFSAAGFKDIRSYRYWDAEKRGLDLQGFLNDLENAPEFSIVVLHACAHNPTGIDPTPEQWKQIASVMKHRFLFPFFDSAYQGFASGNLERDAWAIRYFVSEGFEFFCAQSFSKNFGLYNERVGNLTVVGKEPESILQVLSQMEKIVRITWSNPPAQGARIVASTLSNPELFEEWTGNVKTMADRILTMRSELRARLEALKTPGTWNHITDQIGMFSFTGLNPKQVEYLVNEKHIYLLPSGRINVSGLTTKNLDYVATSIHEAVTKIQ
B2: GOT1 S256A mutant (enzyme, human, UniProt P17174-1 1-413, looked up)
chain: B1 chain with S256A
B3: GOT1 T110A mutant (enzyme, human, UniProt P17174-1 1-413, looked up)
chain: B1 chain with T110A

This series concerns the molecule itself. Briefly: SEC.
Regarding B1, the “stoichiometry N” value was 2 and 4.

For B2, the “stoichiometry N” value was determined as 2.

Consider B3, for which the “stoichiometry N” value was found to be 2.
